In paper PMC3021753:

T1: YeeV fused to the GAL4 DNA binding domain (pGBD-C1) (E. coli), P64524
T1 chain: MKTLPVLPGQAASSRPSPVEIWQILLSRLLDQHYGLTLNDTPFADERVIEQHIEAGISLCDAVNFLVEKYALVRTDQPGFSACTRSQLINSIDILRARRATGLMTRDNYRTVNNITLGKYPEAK


How the values were obtained:
[1] = target: MreB fused to the GAL4 DNA binding domain (pGBD-C1) (E. coli), P0A9X4; test: two-hybrid; settings: remark: other sources report otherwise
[2] = target: T1, YeeV fused to the GAL4 DNA binding …; test: two-hybrid; settings: remark: other sources report otherwise

| Binder | β-Galactosidase activity (Miller Units) [1] | β-Galactosidase activity (Miller Units) [2] |
| --- | --- | --- |
| FtsZ fused to the GAL4 activation domain (pGAD-C1), P0A9A6 1-383 (natural protein) MFEPMELTNDAVIKVIGVGGGGGNAVEHMVRERIEGVEFFAVNTDAQALRKTAVGQTIQIGSGITKGLGAGANPEVGRNAADEDRDALRAALEGADMVFIAAGMGGGTGTGAAPVVAEVAKDLGILTVAVVTKPFNFEGKKRMAFAEQGITELSKHVDSLITIPNDKLLKVLGRGISLLDAFGAANDVLKGAVQGIAELITRPGLMNVDFADVRTVMSEMGYAMMGSGVASGEDRAEEAAEMAISSPLLEDIDLSGARGVLVNITAGFDLRLDEFETVGNTIRAFASDNATVVIGTSLDPDMNDELRVTVVATGIGMDKRPEITLVTNKQVQQPVMDRYQQHGMAPLTQEQKPVAKVVNDNAPQTAKEPDYLDIPAFLRKQAD | 345 Miller Units |  |
| MreB fused to the GAL4 activation domain, P0A9X4 1-347 (natural protein) MLKKFRGMFSNDLSIDLGTANTLIYVKGQGIVLNEPSVVAIRQDRAGSPKSVAAVGHDAKQMLGRTPGNIAAIRPMKDGVIADFFVTEKMLQHFIKQVHSNSFMRPSPRVLVCVPVGATQVERRAIRESAQGAGAREVFLIEEPMAAAIGAGLPVSEATGSMVVDIGGGTTEVAVISLNGVVYSSSVRIGGDRFDEAIINYVRRNYGSLIGEATAERIKHEIGSAYPGDEVREIEVRGRNLAEGVPRGFTLNSNEILEALQEPLTGIVSAVMVALEQCPPELASDISERGMVLTGGGALLRNLDRLLMEETGIPVVVAEDPLTCVARGGGKALEMIDMHGGDLFSEE |  | 98 Miller Units |
